Data taken from patent publication US20030031673A1 (published 2003).

Target: T1, prostate specific membrane antigen (human, UniProt Q04609 1-750)
T1 construct: whole, on cells; also called PSMA
Experiment: Western blot, prostatic (seminal) fluid
Description: To confirm that antibodies E99, J415, J533, and J591 precipitate an identical band to the 7Ell antibody (i.e., PSMA), Western Blot analyses were performed. Seminal plasma (400 μg/lane) or LNCaP lysate were loaded into lanes of 12% SDS-PAGE gels. After electrophoresis, the gels are transferred to nitrocellulose membranes. The membranes were blocked with 5% dry milk/Tris-buffered saline-tween 20 (“TBST”) for 60 min at room temperature. After washing, the membranes were incubated with primary mAb for 60 min at room temperature. After repeat washing, the membranes were incubated with sheep anti-mouse-Ig-peroxidase 1/5000 in 5% dry milk/TEST for 60 min at room temperature. After repeat washing, the membranes were developed using a chemiluminescent tag designated “ECL” (Amersham Life Sciences, International, Arlington Heights, Ill.) according to the manufacturer's directions.

T1 sequence (Q04609 whole entry): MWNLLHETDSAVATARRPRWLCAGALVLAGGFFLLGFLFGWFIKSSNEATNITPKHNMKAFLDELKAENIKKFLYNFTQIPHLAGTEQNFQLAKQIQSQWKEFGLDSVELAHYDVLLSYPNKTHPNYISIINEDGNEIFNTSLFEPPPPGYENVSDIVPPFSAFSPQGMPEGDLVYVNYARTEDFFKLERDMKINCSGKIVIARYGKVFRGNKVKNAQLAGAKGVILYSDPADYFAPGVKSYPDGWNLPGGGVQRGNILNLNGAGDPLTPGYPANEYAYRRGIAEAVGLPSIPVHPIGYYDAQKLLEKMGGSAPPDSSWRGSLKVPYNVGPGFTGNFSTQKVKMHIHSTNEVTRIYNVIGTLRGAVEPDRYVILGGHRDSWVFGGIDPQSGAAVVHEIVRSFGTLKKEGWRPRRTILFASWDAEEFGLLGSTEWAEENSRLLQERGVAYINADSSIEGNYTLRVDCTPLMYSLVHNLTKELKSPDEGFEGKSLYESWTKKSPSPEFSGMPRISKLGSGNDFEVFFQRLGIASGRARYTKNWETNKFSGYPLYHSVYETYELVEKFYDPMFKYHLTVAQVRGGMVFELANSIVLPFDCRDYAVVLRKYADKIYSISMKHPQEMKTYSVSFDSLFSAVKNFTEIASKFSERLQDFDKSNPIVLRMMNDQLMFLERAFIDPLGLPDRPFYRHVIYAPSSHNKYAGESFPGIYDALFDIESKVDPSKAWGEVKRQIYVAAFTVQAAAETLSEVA

binding result: binds
B1: monoclonal antibody J591 (antibody, V domains shown)
VH: EVQLQQSGPELVKPGTSVRISCKTSGYTFTEYTIHWVKQSHGKSLEWIGNINPNNGGTTYNQKFEDKATLTVDKSSSTAYMELRSLTSEDSAVYYCAAGWNFDYWGQGTTLTVSS
VL: DIVMTQSHKFMSTSVGDRVSIICKASQDVGTAVDWYQQKPGQSPKLLIYWASTRHTGVPDRFTGSGSGTDFTLTITNVQSEDLADYFCQQYNSYPLTFGAGTMLDLK
notes: Gold-labeled in the electron microscopy; also called mAb J591; hybridoma ATCC HB-12126
